The source of these data is patent CN116178530A.

Holding throughout (test): cell-based or functional assay
Assay [1] concerns the target SARS-CoV-2的Alpha突变株(B.1.1.7)假病毒的刺突蛋白 (SARS-CoV-2) (UniProt P0DTC2).
For assay [2], the target named is SARS-CoV-2的Delta突变株(B.1.617.2)假病毒的刺突蛋白 (SARS-CoV-2) (UniProt P0DTC2).
The target of assay [3] is SARS-CoV-2的Kappa突变株(B.1.617.1)假病毒的刺突蛋白 (SARS-CoV-2) (UniProt P0DTC2).

Take CB6 (antibody): the figures for the 假病毒中和 IC50 (荧光素酶报告基因, 293-ACE2细胞) in assay [1], in assay [2] and in assay [3] were 0.0557 µg/mL, 0.00343 µg/mL and 0.0147 µg/mL, respectively.
